In patent US20220288223 one finds Kcat/Km data, which are given here for 5 proteins.

In series [1] the target is RACPP with substrate TIAHLA.
The target of series [2] is RACPP with substrate PLGC(me)AG.
Series [3] concerns the target RACPP with substrate PLGLEEA.
The target of series [4] is RACPP with substrate TLSLEH.
Series [5] addresses RACPP with substrate SYPYKY.
The target in series [6] is RACPP with substrate YGRAAA.
The target in series [7] is RACPP with substrate TGRAAA.
The target in series [8] is RACPP with substrate KLRFSQK.
Series [9] deals with RACPP with substrate Nle-TPRSFL.
Series [10] deals with RACPP with substrate RLQLK(Ac)L.
The target in series [11] is RACPP with substrate GVAYSGA.

B1: MMP-12 (protein)
chain: GPVWRKHYITYRINNYTPDMNREDVDYAIRKAFQVWSNVTPLKFSKINTGMADILVVFARGAHGDFHAFDGKGGILAHAFGPGSGIGGDAHFDEDEFWTTHSGGTNLFLTAVHEIGHSLGLGHSSDPKAVMFPTYKYVDINTFRLSADDIRGIQSLYGDPKENQRLPNPDNSEPALCDPNLSFDAVTTVGNKIFFFKDRFFWLKVSERPKTSVNLISSLWPTLPSGIEAAYEIEARNQVFLFKDDKYWLISNLRPEPNYPKSIHSFGFPNFVKKIDAAVFNPRFYRTYFFVDNQYWRYDERRQMMDPGYPKLITKNFQGIGPKIDAVFYSKNKYYYFFQGSNQFEYDFLLQRITKTLKSNSWFGC
Take B1: the Kcat/Km in [1] came out at 2320; in series [2], 9170; in series [3], 10500; in series [4], 1400; in series [5], 14000.

B2: Plasmin (protein)
chain: KVYLSECKTGNGKNYRGTMSKTKNGITCQKWSSTSPHRPRFSPATHPSEGLEENYCRNPDNDPQGPWCYTTDPEKRYDYCDILECEEECMHCSGENYDGKISKTMSGLECQAWDSQSPHAHGYIPSKFPNKNLKKNYCRNPDRELRPWCFTTDPNKRWELCDIPRCTTPPPSSGPTYQCLKGTGENYRGNVAVTVSGHTCQHWSAQTPHTHNRTPENFPCKNLDENYCRNPDGKRAPWCHTTNSQVRWEYCKIPSCDSSPVSTEQLAPTAPPELTPVVQDCYHGDGQSYRGTSSTTTTGKKCQSWSSMTPHRHQKTPENYPNAGLTMNYCRNPDADKGPWCFTTDPSVRWEYCNLKKCSGTEASVVAPPPVVLLPDVETPSEEDCMFGNGKGYRGKRATTVTGTPCQDWAAQEPHRHSIFTPETNPRAGLEKNYCRNPDGDVGGPWCYTTNPRKLYDYCDVPQCAAPSFDCGKPQVEPKKCPGRVVGGCVAHPHSWPWQVSLRTRFGMHFCGGTLISPEWVLTAAHCLEKSPRPSSYKVILGAHQEVNLEPHVQEIEVSRLFLEPTRKDIALLKLSSPAVITDKVIPACLPSPNYVVADRTECFITGWGETQGTFGAGLLKEAQLPVIENKVCNRYEFLNGRVQSTELCAGHLAGGTDSCQGDSGGPLVCFEKDKYILQGVTSWGLGCARPNKPGVYVRVSRFVTWIEGVMRNN
Turning to B2, the Kcat/Km in [6] was found to be 7720; in series [7], 4160; in series [8] it was 6510; in series [5], 19400; in [9], 13000.

B3: CathepsinK (protein)
chain: APDSVDYRKKGYVTPVKNQGQCGSCWAFSSVGALEGQLKKKTGKLLNLSPQNLVDCVSENDGCGGGYMTNAFQYVQKNRGIDSEDAYPYVGQEESCMYNPTGKAAKCRGYREIPEGNEKALKRAVARVGPVSVAIDASLTSFQFYSKGVYYDESCNSDNLNHAVLAVGYGIQKGNKHWIIKNSWGENWGNKGYILMARNKNNACGIANLASFPKM
Turning to B3, the Kcat/Km stood at 2870 in series [10]; 1070 in series [11]; 833 in series [1]; 2640 in series [2]; 7440 in series [8]; 787 in series [3]. The Kcat/Km in series [4] is 497; in series [9] it was 2350.

B4: Chymase (protein)
chain: IIGGTECKPHSRPYMAYLEIVTSNGPSKFCGGFLIRRNFVLTAAHCAGRSITVTLGAHNITEEEDTWQKLEVIKQFRHPKYNTSTLHHDIMLLKLKEKASLTLAVGTLPFPSQFNFVPPGRMCRVAGWGRTGVLKPGSDTLQEVKLRLMDPQACSHFRDFDHNLQLCVGNPRKTKSAFKGDSGGPLLCAGVAQGIVSYGRSDAKPPAVFTRISHYRPWINQILQAN
On to B4, for which the Kcat/Km in [11] worked out at 48100; in series [1], 11500; in series [8], 1970; in [4], 2270; in [5], 16400.

B5: MMP-2 (protein)
chain: YNFFPRKPKWDKNQITYRIIGYTPDLDPETVDDAFARAFQVWSDVTPLRFSRIHDGEADIMINFGRWEHGDGYPFDGKDGLLAHAFAPGTGVGGDSHFDDDELWTLGEGQVVRVKYGNADGEYCKFPFLFNGKEYNSCTDTGRSDGFLWCSTTYNFEKDGKYGFCPHEALFTMGGNAEGQPCKFPFRFQGTSYDSCTTEGRTDGYRWCGTTEDYDRDKKYGFCPETAMSTVGGNSEGAPCVFPFTFLGNKYESCTSAGRSDGKMWCATTANYDDDRKWGFCPDQGYSLFLVAAHEFGHAMGLEHSQDPGALMAPIYTYTKNFRLSQDDIKGIQELYGASPDIDLGTGPTPTLGPVTPEICKQDIVFDGIAQIRGEIFFFKDRFIWRTVTPRDKPMGPLLVATFWPELPEKIDAVYEAPQEEKAVFFAGNEYWIYSASTLERGYPKPLTSLGLPPDVQRVDAAFNWSKNKKTYIFAGDKFWRYNEVKKKMDPGFPKLIADAWNAIPDNLDAVVDLQGGGHSYFFKGAYYLKLENQSLKSVKFGSIKSDWLGC
As for B5, the Kcat/Km in [1] was determined as 16200; in [2], 36400; in series [6], 426; in [3], 2420; in series [4], 11400.
